In publication PMC9637719 one finds stoichiometry N (JetC per JetA2B4), stoichiometry N and stoichiometry N (JetC^head per JetA2B4) data, which are given here for three substances.

Where two headings read alike, the source gives them in different places.

Broadly, the stoichiometry N is the number of molecules, sites or subunits per partner or assembly.

Experiment [1] concerns the target JetAB complex (JetA2B4), full-length JetA and JetB (Pseudomonas aeruginosa PA14). Kind of experiment: SEC + SEC-MALS. Background: In gel filtration, larger molecules generally elute earlier.
Experiment [2] addresses JetC (Wadjet SMC ATPase subunit, P. aeruginosa PA14), tagless wild type (Pseudomonas aeruginosa PA14). Kind of experiment: SEC + SEC-MALS.
Experiment [3] addresses JetAB complex (JetA2B4), full-length JetA and JetB (Pseudomonas aeruginosa PA14). Kind of experiment: SEC + SEC-MALS. The source holds these as a separate data set.
Experiment [4] has the same target. Kind of experiment: SEC-MALS.
For experiment [5], the target named is JetD (Wadjet nuclease subunit, P. aeruginosa PA14) (Pseudomonas aeruginosa PA14). Kind of experiment: SEC + SEC-MALS.

For the substance “JetC (Wadjet SMC ATPase subunit, P. aeruginosa PA14), tagless wild type (natural protein)”, the results for the stoichiometry N (JetC per JetA2B4) in experiment [1] and in experiment [3] were 2 and 4, respectively. In addition, the stoichiometry N in experiment [2] came to 2.

In experiment [4], “JetC^head (JetC^E1022Q,L783A 1-284-[…]-781-1101) (domain or fragment)” returned a stoichiometry N (JetC^head per JetA2B4) of 2.

As for “JetD (Wadjet nuclease subunit, P. aeruginosa PA14) (natural protein)”, the stoichiometry N in experiment [5] worked out at 2.
